# Measured values published in patent US20250346646A1, “COMPOUNDS USEFUL TO TREAT METABOLIC DISORDERS” (President and Fellows of Harvard College, priority 2016, published 2025).
# Legend:
# human glucagon receptor = human glucagon receptor (Homo sapiens, UniProt P47871); assay: cAMP-response element luciferase reporter in CHO-K1 cells expressing human GCGR-GFP; type: cell-based; conditions: 1 ug/ml aP2, 25 nM glucagon, 20 μg/ml antibody; 4 hours post stimulation
# Description: Bar graphs represent mean±standard deviation (s.d.), n=4-5 per group. *P<0.05, **P<0.01, ***P≤0.001, ****P≤0.0001, ns P>0.05. Multiple group comparisons were done using one-way ANOVA statistics with Tukey post-test correction. Graphs show data as mean±standard error of mean (s.e.m.), analyzed using two-way ANOVA.
# During cloning hexahistadine and WELQ protease site was added for protein purification. Murine aP2 gene was cloned into pet21+ vector after the hexahistadine tag and TEV protease site for ease of purification.
# Plasmids were transfected using Lipofectamine (Invitrogen) according to manufacturer's instructions. Transiently transfected cells were grown in appropriate selection antibiotics where applicable for stable cell line generation. Following three passages under selection media, single cell colonies were picked and expanded for experimentation after validation.
# Mouse aP2 = molecular target: T1, Mouse aP2 (Mus musculus, UniProt P04117); assay: Biacore antibody cross-blocking vs H3; type: binding
# T1 construct: 10 His-tag (N, cleaved yes); TEV protease site (N, cleaved yes); made in house; host or cells: E. coli BL21DE3
# T1 sequence (P04117 1-132): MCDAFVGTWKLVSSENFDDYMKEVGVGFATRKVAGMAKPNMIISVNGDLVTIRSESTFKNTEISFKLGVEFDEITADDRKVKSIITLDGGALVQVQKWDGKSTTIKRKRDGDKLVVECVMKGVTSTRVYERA
# Description: FIG. 10B is a table of antibody crossblocking of H3 vs. CA33, CA13, CA15, and CA23 as determined by Biacore analysis. ++=complete blocking; +=partial blocking; −=no crossblocking.
# The assay was performed by injecting mouse aP2 in the presence or absence of mouse anti-aP2 IgG over captured rabbit anti-aP2 IgG. Biomolecular interaction analysis was performed using a Biacore T200 (GE Healthcare Bio-Sciences AB). Anti-aP2 rabbit IgG transient supernatants were captured on the immobilized anti-rabbit Fc surfaces (one supernatant per flowcell) using a flow rate of 10 μl/min and a 60 s injection to give response levels above 200RU. Then mouse aP2 at 100 nM, 0 nM or mouse aP2 at 100 nM plus mouse anti-aP2 IgG at 500 nM were passed over for 120 s followed by 120 s dissociation. The surfaces were regenerated with 2×60 s 40 mM HCl and 1×30 s 5 mM NaOH.
# In further analysis, epitope identification based on hydrogen-deuterium exchange mass spectrometry experiments, for example, as described by Pandit et al. (2012) J. Mol. Recognit. […] Co-crystallization of the Fab fragments of CA33 and H3 with aP2 (FIG. 10D) was then conducted. […] Despite the partial blocking of H3 by CA33, we observed that there is in fact no direct overlap of their epitopes. Instead, the significant movement of the region around aP2 Phe58 may partially block binding of one antibody by the other in the competition experiments. […]
# ob/ob mice = assay: CA33 treatment of leptin-deficient ob/ob mice; type: in vivo, mouse
# Description: FIG. 11C is a bar graph showing fasting blood glucose levels (mg/dl) in ob/ob mice before (open bars) and after (solid bars) 3 weeks of CA33 antibody or vehicle treatment (n=10 mice per group). **p<0.01.
# The test was performed after 2 weeks of vehicle (triangles) or CA33 antibody treatment (squares) in aP2−/− mice. *p<0.05.
# (§1) The test was performed after 3 weeks of vehicle (triangles) or CA33 antibody treatment (squares) in aP2−/− mice.
# as §1
# Animal care and experimental procedures were performed with approval from animal care committees of Harvard University. Male mice (leptin-deficient (ob/ob) and diet induced obese (DIO) mice with C57BL/6J background) were purchased from The Jackson Laboratory (Bar Harbor, ME) and kept on a 12-hour light/dark cycle. DIO mice with C57BL/6J background were maintained on high-fat diet (60% kcal fat, Research Diets, Inc., D12492i) for 12 to 15 weeks before starting treatment except in clamp studies, for which they were on HFD for 20 weeks. Leptin-deficient (ob/ob) mice were maintained on regular chow diet (RD, PicoLab 5058 Lab Diet). Animals used were 18 to 31 weeks of age for dietary models and 9 to 12 weeks of age for the ob/ob model. In all experiments, at least 7 mice in each group were used, unless otherwise stated in the text. The mice were treated with 150 μl PBS (vehicle) or 1.5 mg/mouse (˜33 mg/kg) anti-aP2 monoclonal antibody in 150 μl PBS by twice weekly subcutaneous injections for 3 to 5 weeks. Before and after the treatment, blood samples were collected from the tail after 6 hours of daytime food withdrawal. Body weights were measured weekly in the fed state. Blood glucose levels were measured weekly after 6 hours of food withdrawal or after 16 hours overnight fast. After 2 weeks of treatment, glucose tolerance tests were performed by intraperitoneal glucose injections (0.75 g/kg for DIO, 0.5 g/kg for ob/ob mice). After 3 weeks of treatment, insulin tolerance tests were performed in DIO mice by intraperitoneal insulin injections (0.75 IU/kg). After 5 weeks of treatment, hyperinsulinemic-euglycemic clamp experiments were performed in DIO mice as previously described (Furuhashi et al., (2007) Nature 447, 959-965; Maeda et al., (2005) Cell metabolism 1, 107-119).
# Finally, the effect of CA33 in a second model of severe genetic obesity and insulin resistance using leptin-deficient ob/ob mice was examined. Strikingly, hyperglycemia in the ob/ob mice was normalized in CA33-treated mice compared to controls (FIG. 11C).
# [1] = molecular target: T2, glucagon/aP2 complex in wild-type serum (Mus musculus, UniProt P04117); assay: Co-immunoprecipitation of glucagon and aP2 from serum; conditions: pre-incubation of wild-type serum with antibody
# T2 construct: from tissue; host or cells: serum of wild-type mice
# T2 sequence (P04117 1-132): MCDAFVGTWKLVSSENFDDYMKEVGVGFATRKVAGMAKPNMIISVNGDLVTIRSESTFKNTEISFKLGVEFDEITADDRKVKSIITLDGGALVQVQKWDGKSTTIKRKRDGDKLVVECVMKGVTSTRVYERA
# human glucagon receptor, sequence (P47871 26-477): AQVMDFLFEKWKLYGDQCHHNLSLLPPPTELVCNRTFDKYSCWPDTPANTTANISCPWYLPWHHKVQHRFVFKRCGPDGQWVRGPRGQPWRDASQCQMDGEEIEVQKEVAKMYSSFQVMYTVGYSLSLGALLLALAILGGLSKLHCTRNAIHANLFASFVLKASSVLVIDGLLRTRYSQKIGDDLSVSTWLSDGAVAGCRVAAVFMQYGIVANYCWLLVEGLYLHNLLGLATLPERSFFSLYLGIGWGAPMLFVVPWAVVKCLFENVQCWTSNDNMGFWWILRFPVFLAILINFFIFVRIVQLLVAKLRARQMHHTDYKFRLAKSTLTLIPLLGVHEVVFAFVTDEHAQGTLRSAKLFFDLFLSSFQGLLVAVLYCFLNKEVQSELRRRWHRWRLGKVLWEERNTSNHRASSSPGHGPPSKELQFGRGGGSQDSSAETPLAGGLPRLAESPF
molecule,measurement,setting,value
"CA33: low-affinity anti-aP2 monoclonal antibody, rabbit-mouse hybrid, produced and purified by UCB; VL Seq. ID 28, VH Seq. ID 41 (antibody, V domains shown, Rabbit Ab 909 VH region; Rabbit Ab 909 VL-region) VH: QSVEESGGRLVTPGTPLTLTCTVSGFSLSTYYMSWVRQAPGKGLEWIGIIYPSGSTYCASWAKGRFTISKASTTVDLKITSPTTEDTATYFCARPDNDGTSGYLSGFGLWGQGTLVTVSS VL: DVVMTQTPASVSEPVGGTVTIKCQASEDISRYLVWYQQKPGQPPKRLIYKASTLASGVPSRFKGSGSGTDFTLTISDLECDDAATYYCQCTYGTYAGSFFYSFGGGTEVVVE","Effect on glucagon potentiation by aP2 (cAMP response, luminescence)",human glucagon receptor,blocks the glucagon potentiation effect of aP2
same,Blocking of H3 binding to aP2,Mouse aP2,partially blocked
same,Insulin levels,ob/ob mice; ob/ob mice,lower insulin levels
same,Glucagon response,ob/ob mice; ob/ob mice after 3 weeks of treatment,blunts the glucagon response
same,Hyperglycemia (fasting blood glucose),"ob/ob mice; ob/ob mice, 3 weeks of treatment, vs controls",normalized
same,Glucose tolerance (GTT),"ob/ob mice; ob/ob mice, after 2 weeks, vs vehicle",significantly improved glucose tolerance
same,Co-immunoprecipitation of glucagon and aP2,[1],prevents co-immunoprecipitation
